Numbering of substitutions follows the chain as printed.
Legend:
bsKu core L30G = biological target: T1, bsKu core L30G (Bacillus subtilis, UniProt O34859 18-244, L30G); assay: EMSA; no significant loss of binding; EMSA: 20 mM HEPES pH 7.5, 150 mM KCl, 1 mM DTT, 50 nM DNA, 30 min at 4°C, 15% native PAGE in 0.5x TBE, SYBR Gold; SEC: same buffer, protein:DNA 1:2, 1 h at 4°C, Superdex 75; conditions: protein: recombinant; tags: N-terminal 8xHis-MBP, cleaved; chain copies: 2; blunt
T1 sequence: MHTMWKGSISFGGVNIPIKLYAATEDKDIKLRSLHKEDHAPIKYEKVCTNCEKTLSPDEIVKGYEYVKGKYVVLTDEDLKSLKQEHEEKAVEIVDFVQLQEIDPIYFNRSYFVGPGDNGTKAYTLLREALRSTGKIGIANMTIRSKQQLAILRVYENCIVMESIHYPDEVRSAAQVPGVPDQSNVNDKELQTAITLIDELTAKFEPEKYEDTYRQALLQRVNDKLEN

bsKu core N32E = biological target: T2, bsKu core N32E (Bacillus subtilis, UniProt O34859 18-244, N32E); assay: as above; conditions: protein: recombinant; tags: N-terminal 8xHis-MBP, cleaved; chain copies: 2; blunt
T2 sequence: T1 sequence with G13L, N15E

B1: 13-bp DNA (dsDNA)
DNA 1: GTACCTGTAGAAG
DNA 2: CTTCTACAGGTAC
binding result (bsKu core L30G): binds | binding result (bsKu core N32E): binds

Source: PMC12784961, “Structure of Bacillus subtilis Ku-mediated DNA synaptic complex”
